Experimental data from patent publication US20110171285A1, “Design of Fibrinogen and Fibrinogen Derived Products with Reduced Bacterial Binding by Using Modified Sequences of Fibrinogen Chains” (priority 2009, published 2011).
Where two headings read alike, the source gives them in different places.

Columns and labels:
[1] = biological target: recombinant ClfA229-545 (S. aureus clumping factor A, N2N3 domains), 6xHis tagged (Staphylococcus aureus) (UniProt Q53653)
human fibrinogen (human) = human fibrinogen (human) (UniProt P02671)
[2] = biological target: human 15-mer C-terminal Fg γ-chain peptide (…) (human); experiment: human 15-mer peptide
[3] = biological target: human 17-mer C-terminal Fg γ-chain peptide (…) (human); experiment: human 17-mer peptide
[4] = biological target: recombinant ClfA229-545 (S. aureus clumping factor A, N2N3 domains), 6xHis tagged (Staphylococcus aureus) (UniProt Q53653); remark: listed apart in the source

recombinant ClfA229-545 (S. aureus clumping factor A, N2N3 domains), 6xHis tagged (Staphylococcus aureus), sequence (Q53653 229-545 limits assumed): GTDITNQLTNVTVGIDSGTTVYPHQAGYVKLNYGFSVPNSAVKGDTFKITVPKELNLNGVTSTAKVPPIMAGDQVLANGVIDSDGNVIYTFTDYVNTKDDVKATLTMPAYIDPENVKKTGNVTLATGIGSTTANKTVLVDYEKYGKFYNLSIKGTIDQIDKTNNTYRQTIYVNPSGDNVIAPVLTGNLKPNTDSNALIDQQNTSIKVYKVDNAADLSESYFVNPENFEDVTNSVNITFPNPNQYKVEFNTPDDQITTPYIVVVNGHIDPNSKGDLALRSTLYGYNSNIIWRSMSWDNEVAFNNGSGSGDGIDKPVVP
human fibrinogen (human), sequence (P02671 20-629 limits assumed, chain 1 of 3): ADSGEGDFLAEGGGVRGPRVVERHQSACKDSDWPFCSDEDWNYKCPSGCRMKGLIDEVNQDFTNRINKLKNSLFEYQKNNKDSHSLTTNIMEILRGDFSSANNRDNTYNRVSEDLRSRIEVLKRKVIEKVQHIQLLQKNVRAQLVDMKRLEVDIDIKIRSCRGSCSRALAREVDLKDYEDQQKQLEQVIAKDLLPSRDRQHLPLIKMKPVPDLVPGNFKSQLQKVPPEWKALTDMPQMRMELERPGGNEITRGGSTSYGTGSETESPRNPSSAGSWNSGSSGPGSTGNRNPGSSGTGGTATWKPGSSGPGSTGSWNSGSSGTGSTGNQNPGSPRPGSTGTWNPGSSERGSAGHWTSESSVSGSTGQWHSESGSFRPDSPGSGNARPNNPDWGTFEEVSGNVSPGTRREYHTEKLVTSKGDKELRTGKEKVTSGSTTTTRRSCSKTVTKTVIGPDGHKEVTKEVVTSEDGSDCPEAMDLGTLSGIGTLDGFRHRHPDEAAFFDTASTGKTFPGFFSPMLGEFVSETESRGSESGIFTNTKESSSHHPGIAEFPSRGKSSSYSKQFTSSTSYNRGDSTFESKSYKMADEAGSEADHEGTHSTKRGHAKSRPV
human fibrinogen (human), sequence (P02675 31-491 limits assumed, chain 2 of 3, further chain): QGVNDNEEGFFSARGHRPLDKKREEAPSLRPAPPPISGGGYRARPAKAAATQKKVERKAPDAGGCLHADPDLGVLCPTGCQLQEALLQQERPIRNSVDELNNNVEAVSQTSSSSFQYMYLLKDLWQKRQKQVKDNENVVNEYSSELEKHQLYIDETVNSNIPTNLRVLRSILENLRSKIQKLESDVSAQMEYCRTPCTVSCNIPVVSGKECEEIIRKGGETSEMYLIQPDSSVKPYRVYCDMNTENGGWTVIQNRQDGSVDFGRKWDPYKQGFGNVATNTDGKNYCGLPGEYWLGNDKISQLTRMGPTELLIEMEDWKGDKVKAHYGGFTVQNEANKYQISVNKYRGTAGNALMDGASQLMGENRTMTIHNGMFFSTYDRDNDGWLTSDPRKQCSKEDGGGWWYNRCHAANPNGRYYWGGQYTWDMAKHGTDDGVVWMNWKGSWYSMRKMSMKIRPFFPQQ
human fibrinogen (human), sequence (P02679 other isoform, or with tags, fused parts or gaps limits assumed, chain 3 of 3, further chain): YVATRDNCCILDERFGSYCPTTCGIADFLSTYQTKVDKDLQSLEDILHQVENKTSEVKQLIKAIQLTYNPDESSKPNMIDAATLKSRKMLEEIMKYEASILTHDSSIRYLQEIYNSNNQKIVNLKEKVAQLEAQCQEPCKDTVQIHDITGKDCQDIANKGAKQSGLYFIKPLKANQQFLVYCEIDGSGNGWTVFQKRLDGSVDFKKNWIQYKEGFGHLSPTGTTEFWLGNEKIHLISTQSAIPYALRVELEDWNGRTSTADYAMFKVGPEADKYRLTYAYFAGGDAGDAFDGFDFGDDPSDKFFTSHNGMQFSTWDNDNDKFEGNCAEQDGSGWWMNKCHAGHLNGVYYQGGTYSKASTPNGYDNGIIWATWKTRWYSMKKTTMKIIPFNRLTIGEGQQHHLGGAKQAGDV

human 15-mer C-terminal Fg γ-chain peptide (…)
N [1]: 1.29
ΔH [1]: -3640
ΔS [1]: 8.03

recombinant ClfA229-545 (S. aureus clumping factor A, N2N3 domains), 6xHis tagged (from UniProt Q53653 229-545)
EC50 (read off the curve) (human fibrinogen (human)): 0.2 µM
Kd [2]: 40 µM
Kd [3]: 23 µM

sheep (ovine) 15-mer C-terminal Fg γ-chain peptide (…)
N [4]: 16.2
ΔH [4]: 1340
ΔS [4]: 20.4
